In article PMC7467689:

Assays:
[1] = biological target: coat protein of ssRNA bacteriophage AVE016 (uncultured ssRNA bacteriophage AVE016 (metagenome-derived)); test: crystal structure
[2] = biological target: coat protein of ssRNA bacteriophage EMS014 (uncultured ssRNA bacteriophage EMS014 (metagenome-derived)); test: crystal structure

| Substance | stoichiometry N [1] [CP monomers] | stoichiometry N [2] |
| --- | --- | --- |
| coat protein of ssRNA bacteriophage AVE016 (natural protein) | 210 | – |
| coat protein of ssRNA bacteriophage EMS014 (natural protein) | – | 2 |
